# ± gives the standard deviation of the averaged measurements.
# Test system: Saccharomyces cerevisiae
# Test: protein stability index of tFT-peptide fusion (C-terminal peptide) (PSI (0-1 scale)); higher = more stable (slower turnover)
# Details: genetic background: wild type; temperature: 30 C
# Experimental: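 MPS profiling in S. cerevisiae of the tFT-X12 degron library: putative degron peptides plus stable controls, 12 aa, fused to the C-terminus of a sfGFP-mCherry timer. Cells are FACS-sorted into 8 mCherry/sfGFP bins and deep-sequenced. PSI runs from 0 (unstable) to 1 (stable). Backgrounds are wild type, das1Δ and doa10Δ at 30 °C, and wild type, das1Δ, cdc34-1 and cdc53-1 at 37 °C; 2-3 technical replicates each.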
# 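Also: PSI is a weighted mean of sequencing reads over stability bins, variants kept only with over 10 reads, mCherry proximal and sfGFP distal, peptide attached via GGGS linker.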
row,Sequence,protein stability index
1,CLASCRHRTYLC,0.364 ± 0.025
2,CLFRVCLFILSI,0.3 ± 0.028
3,CLLGMKSRTILV,0.287 ± 0.03
4,CLLSRYRVFFLG,0.184 ± 0.026
5,CLWLRCIVSILP,0.168 ± 0.025
6,CPVSFSFCLKVL,0.0823 ± 0.021
7,CRCLFVVKNWLS,0.167 ± 0.013
8,CSRTRLHCFTAS,0.585 ± 0.027
9,CSSIFSSSDCYA,0.68 ± 0.018
10,CVFCRVAVGVDG,0.439 ± 0.0076
11,CVFVRCVDCMSG,0.387 ± 0.015
12,CVLGWCSLIAWC,0.242 ± 0.0093
13,CWLFVWVRVISL,0.12 ± 0.033
14,DCLSFVLFLFLC,0.134 ± 0.022
15,DFCCGVILTCVC,0.184 ± 0.019
16,DGGHLVGHDLFY,0.664 ± 0.053
17,DIGCLWSKTRLC,0.359 ± 0.017
18,DILQITNIKQKR,0.654 ± 0.014
19,DVHPLFYCIPVY,0.101 ± 0.02
20,FAIPFVLFFRVT,0.173 ± 0.024
21,FASALAPLSAVA,0.358 ± 0.036
22,FCASCLVCFIYL,0.421 ± 0.031
23,FCCWCVCFGYSG,0.394 ± 0.025
24,FCFCLVLRVFLG,0.162 ± 0.024
25,FCFFSMGFVLAL,0.314 ± 0.017
26,FCIIVFYIFVGI,0.333 ± 0.022

row,Sequence,protein stability index
1,FCLMLWGAVLFL,0.223 ± 0.03
2,FCVLLFFFPLII,0.261 ± 0.015
3,FEVLINIWFLSA,0.19 ± 0.018
4,FFACSLLFVLVF,0.17 ± 0.027
5,FFAIFSLLLSFT,0.4 ± 0.014
6,FFALYGHILGLF,0.491 ± 0.016
7,FFFPFLCIAVSL,0.413 ± 0.018
8,FFICCPLLVVCS,0.0665 ± 0.035
9,FFILVFFSLLST,0.274 ± 0.033
10,FFLFILYFGSCF,0.329 ± 0.012
11,FFLFLVCLFFFS,0.355 ± 0.031
12,FFLLSVVLKYSV,0.0922 ± 0.021
13,FFRFNCVFWLFL,0.233 ± 0.016
14,FFRLFAPLLVVL,0.178 ± 0.019
15,FFSQLFLEIVAA,0.175 ± 0.029
16,FFVFSFVLFFPL,0.322 ± 0.029
17,FFVLGPVVMSIH,0.266 ± 0.038
18,FFVYFFLLLFWF,0.188 ± 0.015
19,FGARCSLSPLVT,0.652 ± 0.019
20,FGCLFILRCSFL,0.304 ± 0.026
21,FGKGRSLLLVFS,0.395 ± 0.013
22,FGRAVWSRFCIV,0.128 ± 0.03
23,FGVLLLFLFFLP,0.323 ± 0.0085
24,FHRSVVRLWLRN,0.104 ± 0.031
25,FLAPPFLPPPPA,0.705 ± 0.011
26,FLCLLASFVVCF,0.285 ± 0.028

row,Sequence,protein stability index
1,FLFFWRASLFFW,0.15 ± 0.029
2,FLIYMFRHCFFH,0.278 ± 0.028
3,FLMCVFFLCFSN,0.22 ± 0.019
4,FLSLPLFILFLS,0.0821 ± 0.013
5,FLSLSFLLLHFP,0.434 ± 0.041
6,FLVLFYCTFWVR,0.211 ± 0.042
7,FLVPLSPMLLSA,0.347 ± 0.019
8,FMCCFWFFWLGF,0.438 ± 0.0098
9,FNLFWPVSAFVV,0.254 ± 0.0078
10,FNMLFVVRLLYM,0.257 ± 0.045
11,FPFFLLAAPFLA,0.19 ± 0.026
12,FPFFVFRVWFGA,0.346 ± 0.033
13,FPPFALLLIIND,0.421 ± 0.029
14,FPRQFVYLPLLF,0.402 ± 0.032
15,FQPLELFFVCVF,0.181 ± 0.023
16,FRCFVLPYFGRF,0.37 ± 0.015
17,FRDRFLRWNLVS,0.14 ± 0.025
18,FRVFYSFLLCLS,0.162 ± 0.0088
19,FRVILISACESV,0.397 ± 0.019
20,FSFPAFTFIVSI,0.329 ± 0.0099
21,FSICGFYSLCFG,0.512 ± 0.0077
22,FSLLFVRFCFFL,0.248 ± 0.039
23,FSLLLSLSLFHC,0.2 ± 0.025
24,FSVLVVYTRLFQ,0.321 ± 0.033
25,FTEFWFFKQMSV,0.126 ± 0.022
26,FTRWLVYCTPLC,0.441 ± 0.012

# Same assay, conditions: genetic background: wild type; temperature: 37 C
row,Sequence,protein stability index
1,CLASCRHRTYLC,0.58 ± 0.016
2,CLFRVCLFILSI,0.467 ± 0.013
3,CLLGMKSRTILV,0.397 ± 0.015
4,CLLSRYRVFFLG,0.351 ± 0.017
5,CLWLRCIVSILP,0.30428 ± 0.00014
6,CPVSFSFCLKVL,0.115 ± 0.063
7,CRCLFVVKNWLS,0.293 ± 0.06
8,CSRTRLHCFTAS,0.6796 ± 0.005
9,CSSIFSSSDCYA,0.731 ± 0.011
10,CVFCRVAVGVDG,0.5899 ± 0.0034
11,CVFVRCVDCMSG,0.579 ± 0.0085
12,CVLGWCSLIAWC,0.1967 ± 0.0017
13,CWLFVWVRVISL,0.158 ± 0.018
14,DCLSFVLFLFLC,0.149 ± 0.0066
15,DFCCGVILTCVC,0.193 ± 0.023
16,DGGHLVGHDLFY,0.78 ± 0.0091
17,DIGCLWSKTRLC,0.6042 ± 0.0039
18,DILQITNIKQKR,0.722 ± 0.039
19,DVHPLFYCIPVY,0.0474 ± 0.03
20,FAIPFVLFFRVT,0.231 ± 0.013
21,FASALAPLSAVA,0.509 ± 0.0079
22,FCASCLVCFIYL,0.517 ± 0.019
23,FCCWCVCFGYSG,0.549 ± 0.007
24,FCFCLVLRVFLG,0.222 ± 0.014
25,FCFFSMGFVLAL,0.422 ± 0.026
26,FCIIVFYIFVGI,0.486 ± 0.042

row,Sequence,protein stability index
1,FCLMLWGAVLFL,0.33 ± 0.0042
2,FCVLLFFFPLII,0.374 ± 0.012
3,FEVLINIWFLSA,0.324 ± 0.013
4,FFACSLLFVLVF,0.226 ± 0.014
5,FFAIFSLLLSFT,0.527 ± 0.0072
6,FFALYGHILGLF,0.685 ± 0.052
7,FFFPFLCIAVSL,0.436 ± 0.011
8,FFICCPLLVVCS,0.0677 ± 0.021
9,FFILVFFSLLST,0.4056 ± 0.0022
10,FFLFILYFGSCF,0.448 ± 0.017
11,FFLFLVCLFFFS,0.4333 ± 0.0037
12,FFLLSVVLKYSV,0.14 ± 0.0075
13,FFRFNCVFWLFL,0.428 ± 0.053
14,FFRLFAPLLVVL,0.1836 ± 0.0014
15,FFSQLFLEIVAA,0.171 ± 0.027
16,FFVFSFVLFFPL,0.444 ± 0.022
17,FFVLGPVVMSIH,0.4054 ± 0.0027
18,FFVYFFLLLFWF,0.196 ± 0.0034
19,FGARCSLSPLVT,0.6977 ± 0.0039
20,FGCLFILRCSFL,0.4966 ± 0.0043
21,FGKGRSLLLVFS,0.5765 ± 0.0039
22,FGRAVWSRFCIV,0.177 ± 0.032
23,FGVLLLFLFFLP,0.427 ± 0.0068
24,FHRSVVRLWLRN,0.181 ± 0.066
25,FLAPPFLPPPPA,0.737 ± 0.015
26,FLCLLASFVVCF,0.336 ± 0.015

row,Sequence,protein stability index
1,FLFFWRASLFFW,0.191 ± 0.022
2,FLIYMFRHCFFH,0.393 ± 0.018
3,FLMCVFFLCFSN,0.325 ± 0.029
4,FLSLPLFILFLS,0.119 ± 0.0033
5,FLSLSFLLLHFP,0.479 ± 0.005
6,FLVLFYCTFWVR,0.349 ± 0.071
7,FLVPLSPMLLSA,0.463 ± 0.014
8,FMCCFWFFWLGF,0.501 ± 0.0061
9,FNLFWPVSAFVV,0.398 ± 0.044
10,FNMLFVVRLLYM,0.396 ± 0.0043
11,FPFFLLAAPFLA,0.295 ± 0.026
12,FPFFVFRVWFGA,0.502 ± 0.022
13,FPPFALLLIIND,0.525 ± 0.0097
14,FPRQFVYLPLLF,0.595 ± 0.02
15,FQPLELFFVCVF,0.212 ± 0.016
16,FRCFVLPYFGRF,0.5489 ± 0.0039
17,FRDRFLRWNLVS,0.21 ± 0.02
18,FRVFYSFLLCLS,0.219 ± 0.0085
19,FRVILISACESV,0.5385 ± 0.004
20,FSFPAFTFIVSI,0.447 ± 0.035
21,FSICGFYSLCFG,0.599 ± 0.023
22,FSLLFVRFCFFL,0.3372 ± 0.0022
23,FSLLLSLSLFHC,0.356 ± 0.0068
24,FSVLVVYTRLFQ,0.508 ± 0.012
25,FTEFWFFKQMSV,0.137 ± 0.04
26,FTRWLVYCTPLC,0.567 ± 0.013
